Measurements taken from article PMC2944802, “CpG-Methylation Regulates a Class of Epstein-Barr Virus Promoters”.

B1: BBLF4 meZRE A (dsDNA)
DNA 1: ATGACTCGTGTGCGAGCCGGTTTCG
DNA 2: CGAAACCGGCTCGCACACGAGTCAT
modifications: 5mC at position 13 of strand 1; bottom-strand methylation not shown in material
B2: BBLF4 ZRE A (dsDNA)
DNA 1: ATGACTCGTGTGCGAGCCGGTTTCG
DNA 2: CGAAACCGGCTCGCACACGAGTCAT
B3: oriLyt ZRE5 (dsDNA)
DNA 1: TTGTCACCTTTGCACATTTGGTCAG
DNA 2: CTGACCAAATGTGCAAAGGTGACAA
B4: BMLF1 ZRE AP-1 (dsDNA)
DNA 1: GCGAAGCACTGACTCATGAAGGTGA
DNA 2: TCACCTTCATGAGTCAGTGCTTCGC
B5: BHLF1 ZRE2 (dsDNA)
DNA 1: TTTAAGGTTTGCTCAGGAGTGGGG
DNA 2: CCCCACTCCTGAGCAAACCTTAAA
B6: BBLF4 meZRE B (dsDNA)
DNA 1: CTCTCCTATGAGCGTTATGTGGACT
DNA 2: AGTCCACATAACGCTCATAGGAGAG
modifications: 5mC at position 13 of strand 1; bottom-strand methylation not shown in material
B7: BBLF4 ZRE B (dsDNA)
DNA 1: CTCTCCTATGAGCGTTATGTGGACT
DNA 2: AGTCCACATAACGCTCATAGGAGAG
B8: BMRF1 meZRE A (dsDNA)
DNA 1: TTGGTGGATGTGCGAGCCATAAAGC
DNA 2: GCTTTATGGCTCGCACATCCACCAA
modifications: 5mC at position 13 of strand 1; bottom-strand methylation not shown in material
B9: BMRF1 ZRE A (dsDNA)
DNA 1: TTGGTGGATGTGCGAGCCATAAAGC
DNA 2: GCTTTATGGCTCGCACATCCACCAA
B10: BRLF1 meZRE2 (dsDNA)
DNA 1: CTAAGCTTATGAGCGATTTTATCAC
DNA 2: GTGATAAAATCGCTCATAAGCTTAG
modifications: 5mC at position 14 of strand 1; bottom-strand methylation not shown in material
B11: BRLF1 ZRE2 (dsDNA)
DNA 1: CTAAGCTTATGAGCGATTTTATCAC
DNA 2: GTGATAAAATCGCTCATAAGCTTAG
B12: BRLF1 meZRE3 (dsDNA)
DNA 1: CAGTCAAAATTCGCGATGCTATAAA
DNA 2: TTTATAGCATCGCGAATTTTGACTG
modifications: 5mC at positions 12 and 14 of strand 1; bottom-strand methylation not shown in material
B13: BRLF1 ZRE3 (dsDNA)
DNA 1: CAGTCAAAATTCGCGATGCTATAAA
DNA 2: TTTATAGCATCGCGAATTTTGACTG

target: Zta (BZLF1:Strep/FLAG) (Epstein-Barr virus, UniProt P03206 149-245); assay: EMSA; apparent, Hill fit; […]; pH and temperature not stated; details: protein: recombinant; tags: tandem StrepII/FLAG; chain copies: 2; label: 32P 5' end; blunt
Sequence (P03206 149-245): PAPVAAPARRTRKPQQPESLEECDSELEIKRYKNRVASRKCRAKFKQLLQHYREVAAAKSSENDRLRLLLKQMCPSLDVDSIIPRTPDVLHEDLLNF

| Binder | Kd |
| --- | --- |
| B1 | 16.3 ± 2.6 nM |
| B2 | 219 ± 41 nM |
| B3 | 37.7 ± 4.3 nM |
| B4 | 40.8 ± 23 nM |
| B5 | 91.6 ± 38.5 nM |
| B6 | 18 ± 4.2 nM |
| B7 | 484 ± 244 nM |
| B8 | 20.2 ± 12.5 nM |
| B9 | 328 ± 166 nM |
| B10 | 12.7 ± 8.2 nM |
| B11 | 113 ± 11.9 nM |
| B12 | 135 ± 45 nM |
| B13 | 1190 ± 227 nM |
